# Reference: the RNAGym collection of RNA variant scans (doi:10.1073/pnas.2313332121)
# B1: TPR t1 (parent)
# chain: GACCAAUCUGCCCUCAGAGCUCGAGAACAUCUUCGGAUGCAGAGGAGGCAGGCUUCGGUGGCGCGAUAGCGCCAACGUCCUCAACCUCCAAUGCAUCCCACCACAUGAUGAUGCCUGAAGAGCCUUGGUUUUUUG
# Variants of: B1
# Assay: polymerase ribozyme fitness, log enrichment relative to wild type (log ratio); higher = more active; in vitro selection for triplet polymerase activity
# Method in brief: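 Mutant libraries of both subunits of a heterodimeric triplet polymerase ribozyme were PCR-built, transcribed, and selected once in triplicate, with frozen incubation at −7 °C and capture of gel-excised extended constructs on streptavidin beads before RT-PCR. Illumina sequencing of input and output libraries was filtered to genotypes with ≥10 input reads and ≥1 read per output. Fitness is the logarithm of genotype enrichment over wild-type enrichment, using inverse-variance-weighted replicate averages. The logarithm is base 2.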
row,Variant,polymerase ribozyme fitness (log ratio)
1,GACCAAUCUGCGCUCAGAGCUCGAGAACAUCUUCGGAUGGAGAGGAGGCAGGCUUCGGUGGUGCGAUAGCGCCAACGUCCUCAACCUCCAAUGCAUCCCACCACAUGAUGAUGCCUGAAGAGCCUUGGUUUUUUG,-0.941
2,GACCAAUCUGCGCUCAGAGCUAGAGAACAUCUUCGGAUGCGGAGGAGGCAGGCUUCGGUGGCGCGAUAGCUCCAACGUCCUCAACCUCCAAUGCAUCCCACCACAUGAUGAUGCCUGAAGAGCAUUGGUUUUUUG,-4.76
3,GACCAAUCUGCGCUCAGAGCUCGAGAACAUCUUAGGAUGCCGAGGAGGCAGGCUUCGGUGGCGCGAUAGCCCCAACGUACUCAACCUCCAAUGCAUCCCACCACAUGAUGAUGCCUGAAGAGCCUUGGUUUUUUG,-6.92
4,GACCAAUCUGCGCUCAGAGCUCGAGAAUAUCUUCGGAUGCAGAGGAGGCAGGCUUCGGUGGCGCGAUAGCGCCAACGUCCUCAACCUCCAAUGCAUCCCACCACAUGAUGAUGCCUGAAGAGCUUUGGUUUUUUG,-0.261
5,GACCAAUCUGCGCUCAGAGCUAGAGAACAUCUUCGGAUGCAGAGGAGGAAGGCUAUGGUGGGGCGAUAGCGCCAACGUCCUCAACCUCCAAUUCAUCCCACCACAUGAUGAUGCCUGAAGAGCCUUGGUUUUUUG,-7.34
6,GACCAAUCUGCGCUCAGAGCUCGAGAACAUCUUCGGAUGCAGAGGAGGAAGGCUUCGGUGGCGCGAUAGCGCCAACCUCCUCAACCUCCAAUGCAUCCCACCACAUGAUGAUGCCUGAAGAGCCUUGGUUUUUUG,-0.254
7,GACCAAUCUGCGCUCAGAGCUCGAGAACAUCUUCGGAUGUAGAGGACGCAGGCUUCGGUGGCGCGAUAGCGCCAACGUUCUGAACCUCCAAUGCAUCCCACCACAUGAUGAUGCCUGAAGAGACUUGGUCUUUUG,-2.93
8,GACCAAUCUGCGCUCAGAGCUCGAGAACAUCUUCGGAUGUAGAGGAGGCAGGCUACGGUGGCGCGAUAGCGCCAACGUCCUGAACCUCCAAUGCAUCCCACCACAUGAUGAUGCCUGAAGAGCCUUGGUUUUUUG,-0.877
9,GACCAAUCUGCGCUCAGAGCUCGAGAACAUCUUCGGAUGCAGAGGAGGGAGGCUUCGGUGGCGCGAUAGCGCCAACGUCCUCAACCUCCAAUGCAUCCCACCACAUGAUGAUGCCUGAAGAGCCUUGGUUUUUUG,-0.51
10,GACCAAUCUGCGCUCAGAGUUCGAGAACAUCUUCGGAUGCAGAGGAGGCAGGCUUCGGUGGCGCGUUAACGCCAACGUCCUCAACCUCCAAUGCAUCCCACCACAUGAUGAUGCCUGAAGAGCCUUGGUUUUUUG,-5.04
11,GACCAAUCUGCGCUCAGAGUUCGAGAACAUCUUCGGAUGCAGAGGAGGCAGGCUUCGGUGGCGCGAUAGCGCCAACGUCCUCAACCUCCAAUGCAUCCCACCACAUGAUGAUGCCUGAAGAGCCUUGGUUUUUUG,-0.703
12,GACCAAUCUGCGCUCAGAGCUCGAGAAUAUCUUCGGAUGCAGAGGAGGCAGGCUUCGGUGGCGCGAUAGCUCCAACGUCCUCAACCUCCAAUGCAUCCCACCACAUGAUGAUGCCUGAAGAGCUUUGGUUUUUUG,-0.951
13,GACCAAUCUGCGCUCAGAGCUUGAGAACAUCUUCGGAUGCAGAGGAGGCAGGCUUCGGUGGCACGAUAGCGCCAACGUCCUCAACCACCAAUGCAUCCCACCACAUGAUGAUGCCUGAAGAGCCUUGGUUUUUUG,-4.98
14,GACCAAUCUGCGCUCAGAGCUCGAGAAGAUCUUCGGAUGCAGAGGAGGCAGGCUUCGGUGGCGCGAUAGCGCCAACGUCCUCAACCUCCAAUGCAUCCCACCACAUGAUGAUGCCUGAAGAGCCUUGGUUUUUUG,-1.82
15,GACCAAUCUGCGCUCAGAGCUCGAGAACAUCUUCGGAUGCAGAGGAGGGAGGCUUCGGUGGCGCGAUAGCGACAACGUCCUCAACCUCUAAUGCAUCCCACAACAUGAUGAUGCCUGAAGAGCCUUGGUUUUUUG,-1.91
16,GACCAAUCUGCGCUCAGAGCUCGAGAACAUCUUCGGAUGCAGAGGAGGCAGGUUUCGGUGGCGUGAUAGCGCCAACGUCCUCAACCUCCAAUGCAUCCCACCACACGAUGAUGCCUGAAGAGCCUUGGUUUUUUG,-0.438
17,GACCAAUCUGCGCUCAGAGCUCGAGAACAUCUUAGGAUGCAGAGGAGGCAGGCUUCGGUGGUGCGAUAGCGCCAACGUCCUCAACCUCCAAUGCAUCCCACCACAUGAUGAUGCCUGAAGAGCCUUGGUUUUUUG,-2.32
18,GACCAAUCUGCGCUCAGAGCUAGAGAACAUCUUCGGAUGCAGAGGAGGCAGGCUUCGGUGGCGCGAUAGCGCCAACGUCCUCAACCUCCAAUGCAUCCCACCACAUGAUGAUGCCUGAAGAGCCUUGGUUUUUUG,-4.18
19,GACCAAUCUGCGCUCAGAGCUCGAGAACAUCUUCGGAUGCAGAGGAGGCAGGUUUCGGUCGCGCGAUAGCGCCAACGUCCUCAACCUCUAAUGCAUCCCACUAUAUGAUGAUGCCUGAAGAGCCUUGGUUUUUUG,-2.28
20,GACCAAUCUGCGCUCAGAGAUCGAGAACAUCUUCGGAUGCAGAGGAGGCAGGCUUCGGUGGCGCGAUAACGCCAACGUUCUCAACCUCCAAUGCAUCCCACCACAUGAUGAUGCCUGAAGAGUCUUGGUUUUUUG,-5.46
21,GACCAAUCUGCGCUCAGAGCUCGAGAACAUCUUCGGAUGCAGAGGAGGCAGGAUUCUGUUGCGCGAUAGCGCCAACGUCCUCAACCUCCAAUGUAUCCCACCACAUUAUGAUGCCUGAAGAGCCUUGGUUUUUUG,-6.32
